Earlier results, collected in article PMC7602980 (Biomolecules, 2020).

Molecular target: Cx43CT
Settings: compared with CaM; no reference printed beside the value; Drebrin–Cx43 interaction ref [78]; read-out: binding affinity Drebrin for Cx43CT, as quoted in discussion
From the text: While CaM can be seen as mimicking P ...

B1: Drebrin: developmentally regulated brain protein, linker between Cx43 gap junctions and actin/submembrane cytoskeleton (protein, UniProt Q16643 2-649, looked up)
Drebrin: AGVSFSGHRLELLAAYEEVIREESAADWALYTYEDGSDDLKLAASGEGGLQELSGHFENQKVMYGFCSVKDSQAALPKYVLINWVGEDVPDARKCACASHVAKVAEFFQGVDVIVNASSVEDIDAGAIGQRLSNGLARLSSPVLHRLRLREDENAEPVGTTYQKTDAAVEMKRINREQFWEQAKKEEELRKEEERKKALDERLRFEQERMEQERQEQEERERRYREREQQIEEHRRKQQTLEAEEAKRRLKEQSIFGDHRDEEEETHMKKSESEVEEAAAIIAQRPDNPREFFKQQERVASASAGSCDVPSPFNHRPGSHLDSHRRMAPTPIPTRSPSDSSTASTPVAEQIERALDEVTSSQPPPLPPPPPPAQETQEPSPILDSEETRAAAPQAWAGPMEEPPQAQAPPRGPGSPAEDLMFMESAEQAVLAAPVEPATADATEIHDAADTIETDTATADTTVANNVPPAATSLIDLWPGNGEGASTLQGEPRAPTPPSGTEVTLAEVPLLDEVAPEPLLPAGEGCATLLNFDELPEPPATFCDPEEVEGESLAAPQTPTLPSALEELEQEQEPEPHLLTNGETTQKEGTQASEGYFSQSQEEEFAQSEELCAKAPPPVFYNKPPEIDITCWDADPVPEEEEGFEGGD
  Kd: ~300 µM
